Experimental data reported in article PMC9913320, “Development of ^99mTc-Hynic-Adh-1 Molecular Probe Specifically Targeting N-Cadherin and Its Preliminary Experimental Study in Monitoring Drug Resistance of Non-Small-Cell Lung Cancer” (Cancers, 2023).
Read-outs that look alike come from different tables or passages of the source.

Key:
[1] = In vitro stability in PBS; format: physicochemical; details: PBS pH 7.4, room temperature
Procedure: (§1) In vitro stability studies of ^99mTc-HYNIC-ADH1 were performed in FBS as well as PBS solution. A total of 50 μL of ^99mTc-HYNIC-ADH1 was mixed with 950 μL of FBS (or PBS), and its radioactivity was measured after being incubated at room temperature for 0.5, 1, 2, 4, 6 and 24 h, respectively.
(§2) For stability assessments, ^99mTc-HYNIC-ADH-1 (3.7 MBq) was incubated in PBS (pH 7.4) or FBS for 24 h. […] The radiochemical purities were 98.51%, 98.50%, 97.97%, 98.02%, 98.81%, 98.09% and 98.09% in FBS at room temperature at 0.5, 1, 2, 3, 6, 12 and 24 h, respectively.

[2] = In vitro stability in FBS; format: in vitro ADME; details: room temperature
Procedure: as §1, §2

[3] = Biodistribution in normal mice; format: in vivo, C57/BL6 mice; details: for tissue uptake at 0.5 h / tissue uptake at 1 h / tissue uptake at 2 h / tissue uptake at 4 h: i.v.; for tissue uptake at 0.5 h: 30 min; for tissue uptake at 1 h: 60 min; for tissue uptake at 2 h: 120 min; for tissue uptake at 4 h: 240 min
Procedure: The radiotracer (0.1 mL, 0.74 MBq) was injected intravenously into normal C57/BL6 mice and xenograft models as previously described (n = 4 per group per time) via the tail vein. After different time intervals (30, 60, 120 and 240 min), the mice were sacrificed by cervical dislocation, and their blood, tumors and major organs (brain, heart, lung, liver, spleen, kidney, stomach, intestine, muscle, bone and skin) were harvested and weighed. The radioactivity of each sample was measured with a γ-counter. Values are shown as the percentage of the injected dose per gram (%ID/g), which corrected for background and decay to maintain consistency.

PC9 tumor = experiment: Small animal SPECT/CT imaging, ROI analysis; format: in vivo, BALB/c nude mice; details: non-blocked, 1 h
Procedure: (§3) All animal research was performed in accordance with the Zhejiang University Institutional Animal Care and Use Committee guidelines. PC9 and PC9GR cells (2 × 10^6 cells per mice) were injected subcutaneously into the flanks of 2- to 4-week old BALB/c nude mice (left: PC9GR, right: PC9). The cells were allowed to grow 3–5 weeks until tumors were 1 ± 0.5 cm^3 in volume. Normal C57/BL6 mice (aged 6 to 8 wks old) were obtained from the Animal Center of the First Affiliated Hospital of Zhejiang University. All animals were maintained with free access to food and water and used a standard diet, bedding and environment.
(§4) Xenograft models were imaged using a nanoScan SPECT/CT (Mediso, Hungary) in vivo imaging system and anesthetized with 2% isoflurane before imaging. Mice in the non-blocked group (n = 4) were injected via tail vein with 3.7 MBq (100 μL) of radiotracer and imaged at different time points (1, 2 and 6 h). In the blocked group, 100 μL excess ADH-1 was injected through the tail vein 30 min in advance, and then the same volume and dose of imaging agent were injected for 1 h after imaging.
(§5) Three-dimensional ROIs were delineated along the edge of the tumor using SPECT/CT analysis software. Spherical ROIs of 0.03 cm^3 were delineated in organs or tissues (liver and muscle). The radiation intensity of each region was measured, and the tumor/non-tumor ratio was calculated.

PC9GR tumor = experiment: Small animal SPECT/CT imaging, ROI analysis; format: in vivo, BALB/c nude mice; details: 1 h
Procedure: as §3, §4, §5

[4] = mouse, blood, iv, 0.74 MBq, normal C57/BL6 mice, read-out: Biodistribution, Blood
[5] = mouse, bone, iv, 0.74 MBq, normal C57/BL6 mice, read-out: Biodistribution, Bone
[6] = mouse, brain, iv, 0.74 MBq, normal C57/BL6 mice, read-out: Biodistribution, Brain
[7] = mouse, heart, iv, 0.74 MBq, normal C57/BL6 mice, read-out: Biodistribution, Heart
[8] = mouse, intestine, iv, 0.74 MBq, normal C57/BL6 mice, read-out: Biodistribution, Intestine
[9] = mouse, kidney, iv, 0.74 MBq, normal C57/BL6 mice, read-out: Biodistribution, Kidney
[10] = mouse, liver, iv, 0.74 MBq, normal C57/BL6 mice, read-out: Biodistribution, Liver
[11] = mouse, lung, iv, 0.74 MBq, normal C57/BL6 mice, read-out: Biodistribution, Lung
[12] = mouse, muscle, iv, 0.74 MBq, normal C57/BL6 mice, read-out: Biodistribution, Muscle
[13] = mouse, skin, iv, 0.74 MBq, normal C57/BL6 mice, read-out: Biodistribution, Skin
[14] = mouse, spleen, iv, 0.74 MBq, normal C57/BL6 mice, read-out: Biodistribution, Spleen
[15] = mouse, stomach, iv, 0.74 MBq, normal C57/BL6 mice, read-out: Biodistribution, Stomach

CC(=O)N[C@H]1CSSC[C@@H](C(=O)NCCNC(=O)c2ccc(NN)nc2)NC(=O)[C@H](C(C)C)NC(=O)[C@H](C)NC(=O)[C@H](Cc2c[nH]cn2)NC1=O [^99mTc-HYNIC-ADH-1, metal not drawn]
radiochemical purity ([1]; 0.5 h): 99.01% | radiochemical purity ([1]; 1 h): 98.81% | radiochemical purity ([1]; 2 h): 98.55% | radiochemical purity ([1]; 3 h): 99.02% | radiochemical purity ([1]; 6 h): 98.52% | radiochemical purity ([1]; 12 h): 98.01% | radiochemical purity ([2]; 0.5 h): 98.51% | radiochemical purity ([2]; 1 h): 98.50% | radiochemical purity ([2]; 2 h): 97.97% | radiochemical purity ([2]; 3 h): 98.02% | radiochemical purity ([2]; 6 h): 98.81% | radiochemical purity ([2]; 12 h): 98.09% | crossing of the blood–brain barrier ([3]; from biodistribution: no obvious distribution in the brain): could not cross the blood–brain barrier | tissue uptake at 0.5 h [3, 4]: 3.31 ± 0.37 %ID/g | tissue uptake at 1 h [3, 4]: 1.23 ± 0.07 %ID/g | tissue uptake at 2 h [3, 4]: 0.84 ± 0.19 %ID/g | tissue uptake at 4 h [3, 4]: 0.58 ± 0.08 %ID/g | tissue uptake at 0.5 h [3, 5]: 1.45 ± 0.11 %ID/g | tissue uptake at 1 h [3, 5]: 0.61 ± 0.14 %ID/g | tissue uptake at 2 h [3, 5]: 0.58 ± 0.3 %ID/g | tissue uptake at 4 h [3, 5]: 0.44 ± 0.15 %ID/g | tissue uptake at 0.5 h [3, 6]: 0.18 ± 0.05 %ID/g | tissue uptake at 1 h [3, 6]: 0.09 ± 0.02 %ID/g | tissue uptake at 2 h [3, 6]: 0.1 ± 0.02 %ID/g | tissue uptake at 4 h [3, 6]: 0.08 ± 0.05 %ID/g | tissue uptake at 0.5 h [3, 7]: 1.71 ± 0.3 %ID/g | tissue uptake at 1 h [3, 7]: 0.49 ± 0.29 %ID/g | tissue uptake at 2 h [3, 7]: 0.43 ± 0.07 %ID/g | tissue uptake at 4 h [3, 7]: 0.32 ± 0.04 %ID/g | tissue uptake at 0.5 h [3, 8]: 2.96 ± 0.3 %ID/g | tissue uptake at 1 h [3, 8]: 2.14 ± 0.43 %ID/g | tissue uptake at 2 h [3, 8]: 1.78 ± 0.2 %ID/g | tissue uptake at 4 h [3, 8]: 1.26 ± 0.33 %ID/g | tissue uptake at 5 min ([3]; mouse, kidney, iv, 0.74 MBq, normal C57/BL6 mice, 5 min): 22.1 ± 1.15 %ID/g | tissue uptake at 0.25 h ([3]; mouse, kidney, iv, 0.74 MBq, normal C57/BL6 mice, 15 min): 12 ± 0.73 %ID/g | tissue uptake at 0.5 h [3, 9]: 12.1 ± 0.47 %ID/g | tissue uptake at 1 h [3, 9]: 9.01 ± 0.76 %ID/g | tissue uptake at 2 h [3, 9]: 6.46 ± 0.3 %ID/g | tissue uptake at 4 h [3, 9]: 6.16 ± 0.51 %ID/g | tissue uptake at 0.5 h [3, 10]: 1.95 ± 0.17 %ID/g | tissue uptake at 1 h [3, 10]: 1.06 ± 0.2 %ID/g | tissue uptake at 2 h [3, 10]: 0.86 ± 0.15 %ID/g | tissue uptake at 4 h [3, 10]: 0.68 ± 0.12 %ID/g | tissue uptake at 0.5 h [3, 11]: 3.83 ± 0.12 %ID/g | tissue uptake at 1 h [3, 11]: 1.7 ± 0.14 %ID/g | tissue uptake at 2 h [3, 11]: 1.54 ± 0.56 %ID/g | tissue uptake at 4 h [3, 11]: 1.08 ± 0.27 %ID/g | tissue uptake at 0.5 h [3, 12]: 1.55 ± 0.8 %ID/g | tissue uptake at 1 h [3, 12]: 0.44 ± 0.08 %ID/g | tissue uptake at 2 h [3, 12]: 0.52 ± 0.29 %ID/g | tissue uptake at 4 h [3, 12]: 0.42 ± 0.21 %ID/g | tissue uptake at 0.5 h [3, 13]: 3.45 ± 0.44 %ID/g | tissue uptake at 1 h [3, 13]: 1.9 ± 0.58 %ID/g | tissue uptake at 2 h [3, 13]: 1.69 ± 0.4 %ID/g | tissue uptake at 4 h [3, 13]: 1.05 ± 0.18 %ID/g | tissue uptake at 0.5 h [3, 14]: 1.25 ± 0.1 %ID/g | tissue uptake at 1 h [3, 14]: 0.73 ± 0.24 %ID/g | tissue uptake at 2 h [3, 14]: 0.53 ± 0.12 %ID/g | tissue uptake at 4 h [3, 14]: 0.45 ± 0.11 %ID/g | tissue uptake at 0.5 h [3, 15]: 2.24 ± 0.42 %ID/g | tissue uptake at 1 h [3, 15]: 0.94 ± 0.23 %ID/g | tissue uptake at 2 h [3, 15]: 0.66 ± 0.09 %ID/g | tissue uptake at 4 h [3, 15]: 1.28 ± 0.43 %ID/g | T/N (tumor to adjacent muscle radioactivity intensity, SPECT/CT ROI) (PC9 tumor): 3.66 ± 0.78 | T/N (tumor to adjacent muscle radioactivity intensity, SPECT/CT ROI) (PC9GR tumor; blocked group (excess unlabeled ADH-1 30 min in advance)): 3.69 ± 0.50 | T/N (tumor to adjacent muscle radioactivity intensity, SPECT/CT ROI) (PC9GR tumor; non-blocked): 7.73 ± 0.54
